Laboratory results as given in the DeepSol protein solubility set.

Assay: soluble on expression in E. coli; label from the status in PepcDB or PDB records

Sequence	soluble on expression in E. coli
MHHHHHHSSGVDLGTENLYFQSMGKVKATPMTPEQAMKQYMQKLTAFEHHEIFSYPEIYFLGLNAKKRQGMTGGPNNGGYDDDQGSYVQVPHDHVAYRYEVLKVIGKGSFGQVVKAYDHKVHQHVALKMVRNEKRFHRQAAEEIRILEHLRKQDKDNTMNVIHMLENFTFRNHICMTFELLSMNLYELIKKNKFQGFSLPLVRKFAHSILQCLDALHKNRIIHCDLKPENILLKQQGRSGIKVIDFGSSCYEHQRVYTYIQSRFYRAPEVILGARYGMPIDMWSLGCILAELLTGYPLLPGEDEGDQLACMIELLGMPSQKLLDASKRAKNFVSSKGYPRYCTVTTLSDGSVVLNGGRSRRGKLRGPPESREWGNALKGCDDPLFLDFLKQCLEWDPAVRMTPGQALRHPWLRRRLPKPPTGEKTSVKR	soluble
MGSDKIHHHHHHMSQPLFPVVEVPDFISEDSQYDTQYKRSMKWNTELGDFVRDGAHRIKECDGKEAFAIWCFKIAQTERYRCLAYPDSIGTEMERAMDNDDEKTVESMVERTITDAIMVNPRAENVRDFQFTWEGDQMHVTFKVKGSNWDEEIEISL	not soluble
MFVDKNGVNMEKKLVKQQLLTGERALFASKDLRIEDSIFDDGESPLKESSNIELVNSSFKWKYPLWYCNNVNVKDCYFFEMGRAGVWYTNDINVEDTIIEAPKNFRRCNRLGLKNVEFVNAEETLWSCDNVTMTNVVAKGNYFAMNSNDMKIDGLKLVGNYPFDGSKNLEIRNSRLMSKDAFWNAENITVYDSYISGEYLGWNSKNLTFINCTIESLQGLCYIDNLVMKNCKLINTTLAFEYSTVDADITSRVDSVLNPTSGTITADSIDKLIIEKDKVDPSLTKIVCRN	not soluble
MRKISVFDTTLRDGEQSAGVNLNFEEKMEIAKQLERLGVDIIEAGFPASSQGDFQSVKAIAETVKGSSVTGLARSVQKDIDAAWEALKSAEEPRIHLFIATSPIHMEHKLRMTPEQVIEKAVESVKYAASRFKHVQWSAEDASRSDFPFLAQIIEAVIQAGATVINLPDTVGYTTPQEIKRMFQYMKQNVPSIDKVSLSTHNHDDLGMAVANSLAAIQGGADQVECTINGIGERAGNASLEEIAVALNIRKDHYETETGLILKEIKRTSSLVSKLTGMVVPNNKAVVGANAFAHESGIHQDGVLKNKQTYEIITPEMVGVSSNSMVLGKHSGRHAFKTKVQELGFTGTDEQLNNIFKAFKDLADKKKEITEDDLFALMTEQTVGGETNHYELQTLQVNYGSNLTNTATITMKLPSGEVAEEAATGSGSVEAIYNTLERLLDAPVKLLDYRIQSITGGRDALADVYVQMDYQGVVSSGRGTAHDVLEASAKAYLNAVNRTINRKKYAEVYGSKVEV	soluble
GSAHRFPALTQEQKKELSEIAQSIVANGKGILAADESVGTMGNRLQRIKVENTEENRRQFREILFSVDSSINQSIGGVILFHETLYQKDSQGKLFRNILKEKGIVVGIKLDQGGAPLAGTNKETTIQGLDGLSERCAQYKKDGVDFGKWRPVLRIADQCPSSLAIQENANALARYASICQQNGLVPIVEPEVIPDGDHDLEHCQYVTEKVLAAVYKALNDHHVYLEGTLLKPNMVTAGHACTKKYTPEQVAMATVTALHRTVPAAVPGICFLSGGMSEEDATLNLNAINLCPLPKPWKLSFSYGRALQASALAAWGGKAANKEATQEAFMKRAMANCQAAKGQYVHTGSSGAASTQSLFTACYTY	soluble
AGHDGSQLAARLDLPQGPVLATALFAHCFTCSKDIPAARRIAARLAAMGIAVLRFDFTGLGHSEGEFANTTFTSNVGDLAAAARYLAGRDMAPALLIGHSLGGAAVLRARAQIASVRAVVTIGAPADPGHVAHHFETALPRIQAEGAAEVCLGGRPFRIGRDFVEDIAASALQPAIADLRAALLVLHAPRDETVSIDNASQIFMAAKHPKSFVTLDDADHLISRARDAEYAAEVIAAWAGRYVD	not soluble
MDFESNGAMMEYCKSTGRTYCAFSIQQSSKLLGTVVLELFTDIAPATCANFIKYIKDGYQGTPLHRIVPNGWVQGGDIVDGSGKGDPGFVLPDETYSVKHDAPGVLGMATGGQPHTANTQFYISLSPLPFLDGKRVAFGRVLNKQSLENLLALQTLPTFQNERPVPDVVIASCHVIYNPNS	not soluble
AIARSEWPFDYASEADAMLHRITPENFEKLVRFAARLLRVGEIIALPTDTVYGLAAAARNSHGIELLYQTKQRDLRKPLAIAVPSVEDVSVYLHTEHLPPGLLEAILPGPLTLLLRQREDYVGIDLQDVRIDQYRGWERAKRLAPNLNLRRDGLLGVRVPDASFACAVSRELGDPLALTSANVSGRGDCGSVDEFRALWSACAAVFDGGAMPKPVMPSTVVDLSVPGTFRITRAGWMATDLVRILENKFGLTNKSANTSN	soluble
MPADDLQQALNNSQNGDVITLGPGSYFGNFIISNQVTLRSNNKGEAIIDSQGKGHGLWLKNSQITIENLTITNWGHDLTDQNSGIYSHGKIDNNKVPSLTIRNNILIGDGFGIWLNQADKAIISHNRVKGNLTLRSADRGNGIQVANVTNSHVFLNEVSETRDGVYVISSQNNIIEQNTMHHLRYGIHYMYSYDNTVKNNTAYDTRAGYALMSSRRLTITGNKTTNSEDYGFLLNFITQSTFSHNYVKNVWTKPENKVLGRDGKGLFVYNSGYNTVKHNIIDTAEIGIHLTAGSENIKIFGNSFINNPTQVKYVSNKKQEWSKDGRGNYWSNYLGWDMGNDGIGDTIFEPNDGIDKLVWQYPEMKMIMDSPAILILRWVQRQFPVLKPPGVKDSFPLMSAPSLTKNEQAATPLAVTTSTFTKSNSAQSANTTSASLKELEHHHHHH	soluble
MSYITKQDKVIAEAIEREFQRQNSNIELIASENFVSEAVMEAQGSVLTNKYAEGYPGRRYYGGCEFVDVTESIAIDRAKALFGAEHVNVQPHSGSQANMAVYLVALEMGDTVLGMNLSHGGHLTHGAPVNFSGKFYNFVEYGVDKDTERINYDEVRKLALEHKPKLIVAGASAYSRTIDFKKFKEIADEVNAKLMVDMAHIAGLVAAGLHPNPVEYADFVTTTTHKTLRGPRGGMILCKEEYKKDIDKTIFPGIQGGPLEHVIAAKAVAFGEALENNFKTYQQQVVKNAKVLAEALINEGFRIVSGGTDNHLVAVDVKGSIGLTGKEAEETLDSVGITCNKNTIPFDQEKPFVTSGIRLGTPAATTRGFDEKAFEEVAKIISLALKNSKDEEKLQQAKERVAKLTAEYPLYQ	not soluble
MIVLGIESSCDETGLAIYDYSKKKLIADELYSQVKLHKKYGGVVPELASREHIAKLNLLAKKIFKETGLSFEDIDCIAYTAMPGLVGALMVGATFAKTLGLIHNIDTIAVHHLEGHLLSPLLDHNSNIEYPFVALLVSGGHTQLFEVKEFGEYSLLGESIDDAAGEAFDKTTKLLGMGYPGGVEVANLADQATDKSKYILPRPMKNKPNLDFSFSGLKTAVLNTWYDEQDQSLENKANLCYAFQDAAIDVLVSKCAKALQKTKNTRLVISGGVSANKLLRHQLDLLAKNRGYQIFFPPMKYCTDNGAMIALAGAYRYVNGFKDSNLEINVKARSPL	soluble
MMDYPSIDTLLESAHIVTLPMKYPFMGLSERQAVLFEGPNSWAEYSPFMGCNDTRMWLASAIEYGWGNTNVLSVPNLDLDNTNFASRSKYGYIANPQTSNKDHSDNKRFYTQTKNHREIPVNAILPDIPASKMSEILGKDLQGCKCVKIKVGKHFQDRDIHRIRAVLDFMGADTMLRLDANCKWNVSETLNNLDVLEDNDLLENVSYIEQPCRTTRELITLKQKMDTRGYVTKIAIDESLRDLLLHWQKNRKWSNNSGITYTTELRETLSACDMLVLKLQPMGGMRAVADLLESIKNNIKVNVGYTVSSSLETSLGIEMGLALALNLPNITLPVGLATAGLLDADITDDPLLPNKGYITPRKIEVNKKLLNRYAADKRHVVWWHRRIRAAHRALFQDLSD	soluble
MDREVEAQIGLNNVKILKSNILDSDEGKLFLKFGDEDLVIGELESLKAIQSTETILCPKPFGIIRRNGSYSLITSYIDFQLRKDWALAGSQLAKMHAKNGEQLAQNARRTRFVSVNSGMSDISKSEEGEQIGTENFGFHVTTCCGRLGQENDWTETWEEFFIRHRLKPQIDRLIETHNDRQLFELSEILYTKTAKLLKCRENVLPSLVHGDLWGGNWSMTTADGAPEPIIFDPSSSYSDPEFEFGIMKMFGGWTQDFENKYEKIIKTADGKNQRVLLYELYHNLNHWNHFGNSYRKKEKKLDKIYNNVYNNCYNNVRKNYCTKRITPKSGKLRNKAVRHPDFLANGIRRSPNLNFRSAIVICRSPFAAQPWYVAQLSKLEVMITDLIQM	not soluble
MGSDKIHHHHHHMCQGLMTHSRCVKSNTMFSIRIKAGRKAYEQIRDGGFSCDRISAFFAPAAGPRWLVATGFDLTLLKAGLLGRKKPVQLIGSSSGAWRFAAWVQPEAEKSYLNLMEAYIRIPYHKDDRAGIVLQNLINVVNSYIEDDALPFALAHKHYRLAVLTARVRHLVASESSWIQSSGLFLCFLMNALSRSTLDHFTERVVFYNGPNPPGFCLKSPFRGRFIQLNRTNFKHAILASGAIPLFVAGIRDIYGAPRGVYRDGGLVDYHQTYDFAESDDDMTLFFHHQERIIPGWFDKRLKHRRTPDVLLDHTLMVFPTEDFVSTLPLGKLPDREDFRSFMDDPATRIRNWQEAVRRSAPLGEQFFELVESGKLRSMVERI	not soluble
MAHHHHHHMLNITRLRNLPEDLFEVDRRQKNGSNQSGKGWPQHKELIFDFTSLVRAYNQNKFEHLTDTFNNNRILISELVLHQLDEKNKVVRSTDAANAQEDDFHPVRLRDLINFLVTNMTESWLEFQRKGTQEDKQFTQLRCLNENVETPLRLISYALYKKRQGKDVLLVTSDSGLKCEAGLNSIDSQSIENIG	not soluble
MSLPQKSKVMHIARTLTGSTTQDEGQERQEAKTQDCQEDKRPETLVKGNGNNMECSRLREKQGVLIANRDGGTR	not soluble
MGSDKIHHHHHHMMENSLNIIEKMNPNQKINYDRVFQKVRESWERDSVRPKILLHSCCAPCSTYSLEYLTQSADVTIYFANSNIHPSTEYTRRKMVQEQFVKDFNERTGNNVQFIAAEYEPNVFLQMVRQKHLENEPEGGKRCTSCFEMRLDIVAEKALELGFDYFGSALTLSPKKNSQLINEIGLDIQKIYDVNYLPSDFKKNNGYKRSVEMCKEYDVYRQCYCGCIFAAKAQGIDLKEQNREAIKFIRNQS	not soluble
MKLLILFSLFAIFFGVIALDSPIPEFYSTGRSTRVPSHRHRIPRLGKREVPNFQADNVPEAGGRVRRYVGPPLKLVILI	not soluble
MKNIAAAGVLERIRRLAPQASVPPYRTVEEWREWQLAEGRKRSEEINRQNHQLRVEKILNRSGIQPLHSKCSFANYQVQNDGQKYALSQAKSIADELMTGCTNFVFSGKTGTGKNHLAAAMGNRLMAKGRSVIIVTVSDVMSVLHDSYDNGKSGEKFLQELCSVDLLVLDEIGVQRETKNEQVVLHQIIDRRTASLCSVGMLTNLNHAAMSTLLGERIMDRMTMNGGRWVTFNWDSWRPNVSNMRVVK	soluble
MAHHHHHHMPAVADCTVVFPLRHDPASTHPDVSGLVGKAFERVNWRDAFDTFLAEERSALWAAKTAFDNTDTSAYIAARDALFPQAVSGVHGAVAFRNRAGHKLHETMEAVGLWEYLKGGATRAKGTFTFVDVCGGPGAFSQALFAMGKEHKLRLRGFGLTLRNVKGLDWYTDLPSRSFFPCYGIDGTGDVFKLENIESLCSLTCKENVRLVVADGGFDVPTEVVNFQETISCRIVYGQWLSAVKLLRPGGCFVLKLFDCFSPFTRAILFLTTHLYESVQVVKPRHSRVVNSERYLVCIGFIGAPKQWLEHFERCYQEGFVDNDNIPTVLPTSLFSGDKIFGADVERMSATIASNQVSGLHAILEKLQSKPAMEEVKS	not soluble
